Laboratory results published in FireProtDB (doi:10.1111/j.1399-3011.1982.tb00898.x).

B1: Tryptophan synthase alpha chain, P0A877 (parent)
chain: MERYESLFAQLKERKEGAFVPFVTLGDPGIEQSLKIIDTLIEAGADALELGIPFSDPLADGPTIQNATLRAFAAGVTPAQCFEMLALIRQKHPTIPIGLLMYANLVFNKGIDEFYAQCEKVGVDSVLVADVPVEESAPFRQAALRHNVAPIFICPPNADDDLLRQIASYGRGYTYLLSRAGVTGAENRAALPLNHLVAKLKEYNAAPPLQGFGISAPDQVKAAIDAGAAGAISGSAIVKIIEQHINEPEKMLAALKVFVQPMKAATRS

Variants of: B1
Conditions: Escherichia coli (strain K12), Thermal, DSC, structure 1WQ5, whole UniProt chain shown
[1] = pH 7, 25 °C, potassium phosphate 1 mM, reversible: yes(<50%)
[2] = pH 7, potassium phosphate 1 mM, reversible: yes(<50%)
[3] = pH 9.3, 25 °C, sodium tetraborate 1 mM, reversible: yes(>70%)
[4] = pH 9.3, sodium tetraborate 1 mM, reversible: yes(>70%)

Question: For MERYESLFAQLKERKEGAFVPFVTLGDPGIEQSLKIIDTLIEAGADALSLGIPFSDPLADGPTIQNATLRAFAAGVTPAQCFEMLALIRQKHPTIPIGLLMYANLVFNKGIDEFYAQCEKVGVDSVLVADVPVEESAPFRQAALRHNVAPIFICPPNADDDLLRQIASYGRGYTYLLSRAGVTGAENRAALPLNHLVAKLKEYNAAPPLQGFGISAPDQVKAAIDAGAAGAISGSAIVKIIEQHINEPEKMLAALKVFVQPMKAATRS [E49S], which “heat capacity change of unfolding” value [1] is on record?
Answer: Its value is 2.9 kcal/mol/K.

Question: And the unfolding free energy [1]?
Answer: Its unfolding free energy is 7.7 kcal/mol.

Question: What about the Tm [2] of the same variant?
Answer: Its Tm is 60.5 °C.

Question: What about the “heat capacity change of unfolding” value [2] of the same variant?
Answer: The value was 2.9 kcal/mol/K.

Question: And the “heat capacity change of unfolding” value [3]?
Answer: Its value is 2.9 kcal/mol/K.

Question: And the unfolding free energy [3]?
Answer: Its unfolding free energy is 7.1 kcal/mol.

Question: What about the Tm [4] of the same variant?
Answer: Its Tm is 58.6 °C.

Question: What about the “heat capacity change of unfolding” value [4] of the same variant?
Answer: The value was 2.9 kcal/mol/K.

Question: With MERYESLFAQLKERKEGAFVPFVTLGDPGIEQSLKIIDTLIEAGADALQLGIPFSDPLADGPTIQNATLRAFAAGVTPAQCFEMLALIRQKHPTIPIGLLMYANLVFNKGIDEFYAQCEKVGVDSVLVADVPVEESAPFRQAALRHNVAPIFICPPNADDDLLRQIASYGRGYTYLLSRAGVTGAENRAALPLNHLVAKLKEYNAAPPLQGFGISAPDQVKAAIDAGAAGAISGSAIVKIIEQHINEPEKMLAALKVFVQPMKAATRS [E49Q] as the variant, how does the “heat capacity change of unfolding” value [1] read?
Answer: Its value is 2.9 kcal/mol/K.

Question: And the unfolding free energy [1]?
Answer: Its unfolding free energy is 7.4 kcal/mol.

Question: And the “heat capacity change of unfolding” value [3]?
Answer: Its value is 2.9 kcal/mol/K.

Question: What about the unfolding free energy [3] of the same variant?
Answer: The unfolding free energy was 8.4 kcal/mol.

Question: And the Tm [4]?
Answer: Its Tm is 62.4 °C.

Question: What about the “heat capacity change of unfolding” value [4] of the same variant?
Answer: The value was 2.9 kcal/mol/K.
